Laboratory results as given in PMC8279337.

Molecular target: Adipose Triglyceride Lipase (UniProt Q96AD5)
Sequence of UniProt Q96AD5 (Q96AD5 whole entry): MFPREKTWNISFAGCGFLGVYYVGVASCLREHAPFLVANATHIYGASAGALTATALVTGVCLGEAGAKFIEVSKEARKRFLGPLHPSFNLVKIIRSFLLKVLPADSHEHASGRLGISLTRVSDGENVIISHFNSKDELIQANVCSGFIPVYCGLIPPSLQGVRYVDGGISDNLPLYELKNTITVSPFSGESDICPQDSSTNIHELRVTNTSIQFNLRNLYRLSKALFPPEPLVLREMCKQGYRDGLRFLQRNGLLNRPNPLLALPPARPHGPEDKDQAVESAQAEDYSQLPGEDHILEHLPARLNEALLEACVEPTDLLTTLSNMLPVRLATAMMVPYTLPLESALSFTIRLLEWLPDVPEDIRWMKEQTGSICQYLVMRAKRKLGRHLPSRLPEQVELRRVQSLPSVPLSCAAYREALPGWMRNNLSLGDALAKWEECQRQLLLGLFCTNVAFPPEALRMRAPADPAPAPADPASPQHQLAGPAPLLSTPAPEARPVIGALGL

- triglyceride hydrolase activity of the ATGL lysate on [9,10-3H]-triolein (DPM), 2 and 10 ug MBP-G0S2, compared with HisMBP; DPM smaller at 10 ug than at 2 ug: 60%
Substance: MBP-G0S2 (full length G0S2 with N-terminal His6 and maltose-binding protein) (from UniProt Q61585 1-103) (natural protein)
